What all share (experiment): AUC
The target of assay [1] is Advate (recombinant full-length factor VIII, HC–LC heterodimer) (human) (UniProt P00451).
Assay [2] concerns the target Helixate FS (recombinant full-length factor VIII, HC–LC heterodimer) (human) (UniProt P00451).
In assay [3] the target is Kogenate FS (recombinant full-length factor VIII, HC–LC heterodimer) (human) (UniProt P00451).

With “Advate (recombinant full-length factor VIII, HC–LC heterodimer) (from UniProt P00451 20-1332; P00451 1668-2351) (complex)”, in assay [1], the percent of the A280 signal in the 12–20 S distribution (Lot 2) is 3.8%, the percent of the protein-related absorbance signal in the 10.5–10.6 S peak was found to be 7% and the stoichiometry N came out at 2.
As for “Helixate FS (recombinant full-length factor VIII, HC–LC heterodimer) (from UniProt P00451 20-1332; P00451 1668-2351) (complex)”, the stoichiometry N in assay [2] worked out at 2.
Turning to “Kogenate FS (recombinant full-length factor VIII, HC–LC heterodimer) (from UniProt P00451 20-1332; P00451 1668-2351) (complex)”, in assay [3], the percent of the protein-related absorbance signal in the 10.5–10.6 S peak turned out to be 5% and the stoichiometry N came out at 2.

The values above are taken from publication PMC5809250.
